According to the supplement of paper PMC10567573:

B1: PTPN9 (parent)
chain: TQHLPRECLPENLGGYVKIDLATW
B2: KRT13 (parent)
chain: TSSASVTTTSNASGRRTSDVRRP

Variants of: B1
Assay: protein stability index of a GFP-peptide fusion (GPS, HEK-293T) (PSI 1-6); higher = more stable
Details: c terminus: a fixed tail appended
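Further: lentivirally expressed fusions sorted by FACS into six bins by GFP to DsRed ratio, PSI derived from sequencing read proportions per bin multiplied by bin number.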

Protein stability index, by site and new letter:
K18: F 3.63; H 1.79; Y 1.91; T 1.91; R 1.4; D 3.51; I 2.12; L 2.52; W 2.43; P 2.19; N 2.18; C 1.49; A 2; V 3.3; M 1.73; S 1.97; Q 1.97; E 1.93; G 1.93
I19: S 2.76; K 3.08; W 2.46; M 2.79; P 3.11; C 2.3; F 1.79; G 3.3; A 2.86; L 2.06; Q 3.04; Y 2.46; N 2.67; D 3.07; E 3.58; T 2.94; H 2.5; V 2.12; R 2.96
T23: F 2.17; Q 2.58; S 2.02; I 2.02; L 1.76; P 1.99; N 2.06; E 2.73; W 2.94; M 1.83; H 2.09; R 1.89; D 2.37; C 1.38; K 2.38; A 1.83; G 1.9; V 3.6; Y 1.71
L21: M 1.88; V 2.36; S 2.73; A 2.09; Y 1.97; F 1.76; P 2.78; Q 2.96; E 3.27; R 2.97; G 2.85; H 2.17; T 2.27; W 1.76; K 3.35; D 3.46; C 2.06; I 1.65; N 2.63
L9: Y 1.97; W 1.9; V 1.65
L13: Y 1.91; E 3.46; Q 2.2; C 1.55; F 1.41; M 2.27; G 1.98; T 2.28; H 2.21; S 2.41; A 2.5; N 2.58; W 2.54; K 1.96; R 2.43; P 2.17; I 1.91; V 2.17; D 2.65
Y16: H 2.41; T 3.02; C 2.48; R 2.44; F 1.66; N 3.17; L 1.98; E 3.37; Q 2.67; G 2.87; D 3.39; K 3.1; A 3.01; I 2.29; P 3.04; V 2.35; W 1.5; S 2.62; M 2.35
P10: V 1.82; D 1.88; Y 1.68; Q 1.6; F 1.97; K 1.77; A 1.64; R 2.24; S 2.49; L 1.55; E 2.44; H 1.91; G 1.72; N 2.23; T 1.62; M 2.04; I 1.61; W 1.85; C 1.8
D20: K 1.94; H 2.68; F 2.58; N 1.78; Q 1.6; G 1.78; L 1.66; P 1.69; C 1.94; W 3.09; A 2.07; E 1.67; S 1.92; T 2.51; M 1.69; R 1.9; V 2.73; Y 2.68; I 2.01
G14: P 2.38; K 1.68; L 1.43; W 2.02; V 2.35; A 1.96; S 2.07; H 1.91; M 2.03; Q 1.96; Y 2.45; D 2.99; N 2.19; F 1.93; E 2.15; C 1.55; R 2.04; I 1.74; T 1.46
G15: D 2.2; P 2.63; I 2.16; N 1.93; L 1.73; F 2.44; A 1.67; E 2.26; V 1.62; K 2.63; C 2.36; T 1.35; R 2.11; H 1.76; S 1.92; W 2.88; Y 2.16; Q 1.38; M 2.81
E11: G 1.41; I 1.89; S 2.04; A 1.97; W 1.56; L 2.73; R 1.62; D 1.84; H 1.48; K 1.79; C 1.52; V 1.58; T 1.45; P 1.63; M 2.46; F 1.8; Y 1.77; Q 1.71; N 1.41
W24: M 2.05; A 2.84; Y 1.91; N 3.51; Q 3.13; E 4.07; S 3.06; R 2.61; L 2.12; I 1.94; C 2.28; T 3; P 2.86; F 1.8; K 3.59; H 2.66; G 3.38; D 3.88; V 2.06
A22: W 2.09; E 2.35; F 2.43; Y 2.21; N 2.35; M 1.65; C 1.92; I 1.87; H 1.78; D 3.18; P 2.49; R 1.23; T 1.9; L 3.29; K 2.08; S 1.72; Q 2.01; V 2.08; G 1.64
N12: D 1.93; Q 1.91; P 1.49; M 1.96; Y 2.52; F 1.55; K 1.8; L 1.76; R 1.53; G 2; E 3.02; T 1.82; H 1.92; I 1.79; A 2.41; W 1.51; S 2.21; C 1.92; V 2.03
V17: H 2.29; F 1.77; I 2.24; T 2.36; P 2.2; K 3.12; D 3.24; Y 1.95; S 2.57; Q 2.5; C 1.89; L 1.48; W 1.89; N 2.36; M 2.01; A 2.57; R 2; G 2.57; E 2.85

Variants of: B2
Assay: as above
Details: c terminus: native

Protein stability index of substitutions, site by site:
T1: D 2.46; Y 3.12; N 1.34; F 4.09; A 3.56; Q 2.54; E 2.33; W 2.43; H 2.22; I 2.25; V 2.42
A4: K 3.21; G 2.25; D 3.4; L 3.6; N 2.16; P 1.7; H 2.6; E 2.39; I 3.97
S3: T 1.81; E 2.8; C 1.96; G 3.79; K 2.86; A 2.61; Q 2.19; I 2.32; W 1.65; H 2.54; D 2.57; L 1.99; Y 1.46; V 1.93
S2: K 3.48; P 3.07; E 3.22; V 3.9; Y 2.08; F 2.04; N 3.25; T 2.82; L 2.02; G 2.56; Q 1.06; D 2.46
